We go through 5 molecules from patent publication US20260250418A1 (BIOCYTOGEN PHARMACEUTICALS BEIJING, published 2026).

The target of test [1] is T1, human HER3 on CHO-hHER3 cells (human, UniProt P21860 20-643).
T1 construct: CHO-S cells transfected with hHER3
Description: flow cytometry, transfected CHO cells. On the procedure: (§1) Specifically, CHO-hHER3 cells, CHO-fasHER3 cells, NIH3T3-hMET cells or NIH3T3-fasMET cells were transferred to a 96-well plate at a density of 5×10⁴ cells/well respectively. The antibodies were added to the 96-well plate, and incubated at 4° C. for 30 min.
Background: In flow cytometry, cells or beads pass a laser one at a time.

For test [2], the target named is T2, monkey (Macaca fascicularis) HER3 on CHO-fasHER3 cells (monkey (Macaca fascicularis), UniProt P21860 20-643 (human entry)).
T2 construct: CHO-S cells transfected with fasHER3
T2 chain: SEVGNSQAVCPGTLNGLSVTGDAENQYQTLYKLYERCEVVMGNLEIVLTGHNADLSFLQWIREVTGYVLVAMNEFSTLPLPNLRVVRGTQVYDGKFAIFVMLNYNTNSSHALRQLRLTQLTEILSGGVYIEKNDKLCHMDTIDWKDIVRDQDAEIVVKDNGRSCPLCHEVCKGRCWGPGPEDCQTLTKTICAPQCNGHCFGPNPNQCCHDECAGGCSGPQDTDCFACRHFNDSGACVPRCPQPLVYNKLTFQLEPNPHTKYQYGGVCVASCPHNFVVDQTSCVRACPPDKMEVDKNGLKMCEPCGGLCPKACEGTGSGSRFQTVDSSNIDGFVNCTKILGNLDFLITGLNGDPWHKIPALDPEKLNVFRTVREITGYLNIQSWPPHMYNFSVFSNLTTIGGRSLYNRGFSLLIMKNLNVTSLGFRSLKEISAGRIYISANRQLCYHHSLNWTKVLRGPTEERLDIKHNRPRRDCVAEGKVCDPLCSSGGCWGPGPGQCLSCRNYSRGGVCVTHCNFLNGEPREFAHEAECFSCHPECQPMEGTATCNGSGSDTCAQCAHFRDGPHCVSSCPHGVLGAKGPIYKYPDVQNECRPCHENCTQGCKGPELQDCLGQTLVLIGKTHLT
Description: flow cytometry, transfected CHO cells. On the procedure:
as §1

The target in test [3] is T3, human MET on NIH3T3-hMET cells (human, UniProt P08581 25-1390).
T3 construct: NIH3T3 cells transfected with a plasmid expressing hMET
T3 sequence (P08581 25-1390 limits assumed): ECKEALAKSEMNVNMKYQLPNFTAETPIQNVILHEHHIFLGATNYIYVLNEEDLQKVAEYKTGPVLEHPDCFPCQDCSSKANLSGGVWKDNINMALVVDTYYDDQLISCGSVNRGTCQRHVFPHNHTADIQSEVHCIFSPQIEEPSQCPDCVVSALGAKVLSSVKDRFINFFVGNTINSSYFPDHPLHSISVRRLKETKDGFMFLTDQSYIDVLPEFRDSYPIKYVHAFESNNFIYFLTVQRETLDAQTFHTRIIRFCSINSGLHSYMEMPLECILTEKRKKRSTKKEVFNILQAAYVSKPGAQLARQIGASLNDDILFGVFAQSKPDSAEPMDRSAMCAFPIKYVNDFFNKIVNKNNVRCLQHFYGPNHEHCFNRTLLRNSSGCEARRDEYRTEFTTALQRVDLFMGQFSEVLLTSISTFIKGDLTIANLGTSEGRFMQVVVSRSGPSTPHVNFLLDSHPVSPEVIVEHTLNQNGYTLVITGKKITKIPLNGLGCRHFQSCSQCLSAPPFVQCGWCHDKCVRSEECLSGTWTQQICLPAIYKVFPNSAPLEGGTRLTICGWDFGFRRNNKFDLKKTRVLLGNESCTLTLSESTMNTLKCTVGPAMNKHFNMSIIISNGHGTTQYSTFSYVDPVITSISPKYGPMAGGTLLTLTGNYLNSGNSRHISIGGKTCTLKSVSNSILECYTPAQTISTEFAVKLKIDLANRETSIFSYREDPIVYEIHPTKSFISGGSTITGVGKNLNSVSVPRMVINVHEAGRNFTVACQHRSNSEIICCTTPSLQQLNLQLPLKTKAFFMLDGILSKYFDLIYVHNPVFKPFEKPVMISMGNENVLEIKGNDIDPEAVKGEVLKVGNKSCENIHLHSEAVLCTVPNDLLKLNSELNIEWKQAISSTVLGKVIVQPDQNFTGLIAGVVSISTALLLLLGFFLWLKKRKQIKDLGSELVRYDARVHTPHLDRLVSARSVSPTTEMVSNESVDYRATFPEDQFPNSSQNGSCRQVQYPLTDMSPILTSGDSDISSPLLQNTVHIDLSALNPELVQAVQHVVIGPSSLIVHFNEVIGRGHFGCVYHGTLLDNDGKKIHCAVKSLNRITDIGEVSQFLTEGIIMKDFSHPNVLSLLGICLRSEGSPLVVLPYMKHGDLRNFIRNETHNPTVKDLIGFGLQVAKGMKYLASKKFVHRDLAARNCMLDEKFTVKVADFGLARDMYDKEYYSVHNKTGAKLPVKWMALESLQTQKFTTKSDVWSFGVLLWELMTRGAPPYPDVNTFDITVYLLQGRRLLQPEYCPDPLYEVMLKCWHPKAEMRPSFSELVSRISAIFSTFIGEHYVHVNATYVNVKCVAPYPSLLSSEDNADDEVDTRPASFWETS
Kind of test: flow cytometry, transfected NIH3T3 cells. How it is done: as §1

Test [4] deals with T4, monkey MET on NIH3T3-fasMET cells (monkey, UniProt A0M8R7 25-1381).
T4 construct: NIH3T3 cells transfected with a plasmid expressing fasMET
T4 sequence (A0M8R7 25-1381 S170N/I621T limits assumed): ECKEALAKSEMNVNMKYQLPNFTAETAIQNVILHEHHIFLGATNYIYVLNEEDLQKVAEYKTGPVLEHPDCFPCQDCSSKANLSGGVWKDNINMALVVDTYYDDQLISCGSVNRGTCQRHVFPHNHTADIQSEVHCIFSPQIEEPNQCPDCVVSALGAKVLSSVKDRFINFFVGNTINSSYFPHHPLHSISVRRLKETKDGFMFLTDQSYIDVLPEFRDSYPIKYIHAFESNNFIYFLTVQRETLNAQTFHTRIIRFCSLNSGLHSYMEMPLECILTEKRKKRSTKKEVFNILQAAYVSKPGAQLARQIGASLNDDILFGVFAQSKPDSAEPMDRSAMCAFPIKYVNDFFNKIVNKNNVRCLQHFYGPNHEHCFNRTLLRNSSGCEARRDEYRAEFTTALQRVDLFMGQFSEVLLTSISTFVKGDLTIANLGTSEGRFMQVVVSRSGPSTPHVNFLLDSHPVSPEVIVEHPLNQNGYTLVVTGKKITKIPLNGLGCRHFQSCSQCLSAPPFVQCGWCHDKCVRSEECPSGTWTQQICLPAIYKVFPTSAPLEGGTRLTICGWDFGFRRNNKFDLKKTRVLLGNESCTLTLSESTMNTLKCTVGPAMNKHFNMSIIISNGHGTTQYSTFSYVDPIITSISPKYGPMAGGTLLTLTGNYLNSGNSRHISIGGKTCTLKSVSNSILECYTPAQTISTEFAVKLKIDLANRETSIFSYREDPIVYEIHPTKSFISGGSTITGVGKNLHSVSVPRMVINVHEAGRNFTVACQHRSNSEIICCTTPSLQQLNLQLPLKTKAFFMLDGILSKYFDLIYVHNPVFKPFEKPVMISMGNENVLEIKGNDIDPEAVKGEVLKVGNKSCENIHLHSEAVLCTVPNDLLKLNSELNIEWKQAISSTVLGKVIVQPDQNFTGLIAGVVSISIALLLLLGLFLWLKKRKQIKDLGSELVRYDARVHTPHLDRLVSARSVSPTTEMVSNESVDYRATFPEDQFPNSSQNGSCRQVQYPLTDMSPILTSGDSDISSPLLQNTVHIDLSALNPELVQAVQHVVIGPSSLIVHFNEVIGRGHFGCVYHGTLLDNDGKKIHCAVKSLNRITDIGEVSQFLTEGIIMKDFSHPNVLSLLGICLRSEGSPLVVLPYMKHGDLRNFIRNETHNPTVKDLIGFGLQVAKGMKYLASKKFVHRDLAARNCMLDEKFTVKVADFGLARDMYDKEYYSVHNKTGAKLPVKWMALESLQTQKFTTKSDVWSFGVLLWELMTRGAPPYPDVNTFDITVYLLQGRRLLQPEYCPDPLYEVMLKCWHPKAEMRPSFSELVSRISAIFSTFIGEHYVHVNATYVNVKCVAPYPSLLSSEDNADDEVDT
Description: flow cytometry, transfected NIH3T3 cells. How it is done: as §1

The target in test [5] is T5, His-tagged human HER3 protein (hHER3, ACRO Biosystems Inc., Cat #: ER3-H5223) (human, UniProt P21860 20-643).
T5 construct: Bought protein; also called hHER3-His; not shown: His tag
Kind of test: SPR, Ab captured on Protein A, antigen 400 nM. How it is done:
(§2) Purified antibodies were captured on the Protein A chip (Series S Sensor Chip Protein A) for the detection. 2 μg/mL antibodies were loaded at 10 μL/min to bind to hHER3, fasHER3, hMET or fasMET (400 and 0 nM). The flow rate was 30 μL/min, the binding and dissociation time were set to 180 s and 400 s, respectively. The chip was regenerated after the last injection of each titration with a glycine solution ([…]) at 30 μL/min for 30 seconds.
For orientation: Surface plasmon resonance follows binding to a sensor surface in real time, without labels.

In test [6] the target is T6, His-tagged monkey HER3 protein (fasHER3, Sino Biological, Inc., Cat #: 90043-K08H) (monkey).
T6 construct: Bought protein
Kind of test: SPR, Ab captured on Protein A, antigen 400 nM. How it is done: as §2

Test [7] addresses T7, His-tagged human MET (hMET, Sino Biological, Inc., Cat #: 10692-H08H) (human, UniProt P08581 25-932).
T7 construct: Bought protein; not shown: His tag
Kind of test: SPR, Ab captured on Protein A, antigen 400 nM. How it is done:
as §2

Substitutions are numbered along the chain they refer to.

One may read the Kd as the concentration at which binding is half-saturated. As a reminder, the koff is the rate constant with which the complex falls apart. As usually defined, the kon is the rate constant with which the complex forms.

T7 sequence (P08581 25-932 limits assumed): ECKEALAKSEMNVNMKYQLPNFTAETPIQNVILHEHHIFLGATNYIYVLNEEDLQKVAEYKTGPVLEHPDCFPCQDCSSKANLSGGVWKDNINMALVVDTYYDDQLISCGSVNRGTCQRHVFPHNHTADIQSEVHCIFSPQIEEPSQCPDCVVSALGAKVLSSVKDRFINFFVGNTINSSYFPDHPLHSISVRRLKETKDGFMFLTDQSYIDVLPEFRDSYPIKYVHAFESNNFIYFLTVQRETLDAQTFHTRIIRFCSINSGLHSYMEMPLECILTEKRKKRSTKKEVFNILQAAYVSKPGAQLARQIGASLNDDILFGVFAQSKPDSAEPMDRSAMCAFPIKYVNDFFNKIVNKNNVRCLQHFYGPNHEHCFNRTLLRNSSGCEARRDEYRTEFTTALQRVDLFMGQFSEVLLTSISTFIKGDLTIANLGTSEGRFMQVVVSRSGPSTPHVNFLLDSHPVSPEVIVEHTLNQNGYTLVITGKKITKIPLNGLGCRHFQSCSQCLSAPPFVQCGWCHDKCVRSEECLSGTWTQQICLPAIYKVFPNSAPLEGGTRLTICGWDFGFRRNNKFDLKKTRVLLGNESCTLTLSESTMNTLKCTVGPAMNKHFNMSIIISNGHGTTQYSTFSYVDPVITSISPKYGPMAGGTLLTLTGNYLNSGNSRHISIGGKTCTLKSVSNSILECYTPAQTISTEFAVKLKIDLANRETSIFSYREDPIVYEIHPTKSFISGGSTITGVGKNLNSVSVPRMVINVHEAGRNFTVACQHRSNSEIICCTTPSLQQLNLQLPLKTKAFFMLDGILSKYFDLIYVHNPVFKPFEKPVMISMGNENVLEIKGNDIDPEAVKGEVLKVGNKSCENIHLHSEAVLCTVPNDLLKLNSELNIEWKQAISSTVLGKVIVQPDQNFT

B1: anti-HER3/MET bispecific antibody 3G6-2F11 (bispecific antibody, V domains shown)
VH 1: QVQLVQSGPVLVKPTETLTLTCTVSGFSLSNIRMGVSWIRQPPGKALEWLAHIFSNDDKSYSTSLKSRLTISKDTSKSQVVLTMTNVDPVDTATYYCTRMRYSGGPFDYWGQGTLVTVSS
VH 2: EVQLVESGPGLVKPSETLSLTCTVSGGSISSNYWSWIRQPPGKGLEWIGYIYHSGSTNYNPSLKSRVTISVDTSKNQFSLKLSSVTAADTAVYFCARGPVSIFGVVKYIDLWGRGTLVTVSS
VL: not shown
As for B1, the “Positive Cells” value stood at 47.3% in test [1], 56% in test [2], 99.8% in test [3] and 72.9% in test [4]. In addition, the Kd in test [5] was 47.4 nM; in test [6], 90.2 nM; in test [7] it was 50.7 nM. The koff in test [5] came out at 0.0106 s⁻¹; in test [6] it was 0.0103 s⁻¹; in test [7], 0.00256 s⁻¹. Moreover, the kon is 224000 M⁻¹ s⁻¹ in test [5], 114000 M⁻¹ s⁻¹ in test [6] and 50500 M⁻¹ s⁻¹ in test [7].

B2: anti-HER3/MET bispecific antibody 3G6-8E2 (bispecific antibody, V domains shown)
VH 1: B1 VH 1
VH 2: QVQLVQSGPALVKPTQTLTLTCTFSGFSLYTSGVAVAWIRQPPGKALEWLALIYWDDDKWYTPSLKTRLSITKDTSKNQVVLTMTNMDPVDTATYYCAHRGSFNWNYGYFDYWGQGTLVTVSS
VL: not shown
Take B2: the “Positive Cells” value was determined as 55.2% in test [1], 58.4% in test [2], 99.6% in test [3] and 51.6% in test [4]. For the same molecule, the Kd in test [5] stood at 38.9 nM; in test [6] it was 67.2 nM; in test [7] it was 14.8 nM. Moreover, the koff in test [5] is 0.0101 s⁻¹; in test [7], 0.00113 s⁻¹.

B3: anti-HER3/MET bispecific antibody 1B2-8E2 (bispecific antibody, V domains shown)
VH 1: B1 VH 1 with G26T, I32A, T63P, S78T, V87M, T98S, T114S
VH 2: B2 VH 2
VL: not shown
With B3, the “Positive Cells” value in test [1] was 56.3%; in test [2], 61.4%; in test [3], 99.6%; in test [4], 54.3%. Further, the Kd was found to be 13.8 nM in test [5], 31.5 nM in test [6] and 14 nM in test [7]. The koff in test [5] was 0.00252 s⁻¹; in test [6] it was 0.0025 s⁻¹; in test [7] it was 0.000998 s⁻¹. Moreover, the figures for the kon in test [5], in test [6] and in test [7] were 183000 M⁻¹ s⁻¹, 79300 M⁻¹ s⁻¹ and 71400 M⁻¹ s⁻¹, respectively.

B4: anti-HER3/MET bispecific antibody 3E1-2F11 (bispecific antibody, V domains shown)
VH 1: B1 VH 1 with Q1E, V12A, T63P, S67N, N86T, V87M, V90M, R101K
VH 2: B1 VH 2
VL: not shown
Regarding B4, the “Positive Cells” value is 56.4% in test [1], 50.3% in test [2], 99.8% in test [3] and 87.3% in test [4]. Also, the Kd was found to be 14.8 nM in test [5], 33.7 nM in test [6] and 43.1 nM in test [7]. Also, the koff in test [5] worked out at 0.00342 s⁻¹; in test [6] it was 0.00325 s⁻¹; in test [7], 0.00285 s⁻¹. In addition, the kon in test [5] was found to be 231000 M⁻¹ s⁻¹; in test [6] it was 96400 M⁻¹ s⁻¹; in test [7], 66100 M⁻¹ s⁻¹.

B5: anti-HER3/MET bispecific antibody 1B2-2F11 (bispecific antibody, V domains shown)
VH 1: B1 VH 1 with G26T, I32A, T63P, S78T, V87M, T98S, T114S
VH 2: B1 VH 2
VL: not shown
Take B5: the “Positive Cells” value came out at 51.4% in test [1], 56.3% in test [2], 99.8% in test [3] and 66.4% in test [4]. Also, the Kd in test [5] was 16.1 nM; in test [6], 38.9 nM; in test [7], 40.4 nM. Moreover, the koff in test [5] was determined as 0.00253 s⁻¹; in test [6], 0.00255 s⁻¹; in test [7], 0.00255 s⁻¹. Moreover, the kon came to 157000 M⁻¹ s⁻¹ in test [5], 65600 M⁻¹ s⁻¹ in test [6] and 63200 M⁻¹ s⁻¹ in test [7].
